B1: CYPDN29: cytochrome P450 homolog A0A068SBU5 from Lichtheimia corymbifera, codon-optimized (protein, listed as Lichtheimia corymbifera)
chain: MYTLVSFLKDQNIIAVLKNAIHAQQQGTTASSITILSLAVAITTFAVHRIRLYSVKEHGVPLVPYVLPFIGSSPEYRKDPKAFLEKWTAKFGPVFRAHIFGRVYTIISGHYVREVFLNEDFSFEVGMGKTFDGWLITDTKKSELFSTPLVRSMVMKHLAVDVKNYTPRAVEHLTIAAREMLGDIGESKELPHLYPLIQHMVSTAIASILVGLKICKDKDLLETFKNVAVDIGSELNPDSYLYEAFPTISRLRQWYLGKYGKAINKHQEHMLRVLGPEIDERLAAMERGDGGWERPEDILQGILETAKLTSDHPQRYMVPIKWFLILVFASIHTTSQNTTVAMYRLLQHPEVIDELLEEQNQVFEKHHGSNYDDHDITKLLTGEVIKDLVKLDSVCREAMRISSFYAELPHTYIGKSPLTMSNGTIINPGDDVLINGYTNHHDPDIQIDGGGDYAEFKPFRFVEKGRQSTRIGDDYLIFGQGKHACPGRWFAMQEMKTTISFLIRQYIITAKGDIMFLKGHRQKIPMGQVIFQKR
B2: CYPDN31: cytochrome P450 homolog A0A291C3B2 from Absidia caerulea, codon-optimized (protein, listed as Absidia caerulea)
chain: MLTEYIHHFINNFDQKKTMDQLQTMVSSKEGMIGLATAAVLMSGAAVYKSTRIERGCPQVPNQSYFMGSTKEYRNNPAAFIEKWEKELGPVYGAYLFGQYTTVVSGPQVREVFLNDDFDFIAGIRRDFDTNLLSNGGDLRDLPVHKFAGSIKKNLSPKLPFYTSRVIEHLKIGLKEFCGVVPDEGKEFDHVYPLVQHMVAKASASVFVGPELAKNEQLIDSFKNMVLEVGSELAPKPYLEFFPNLMRLRMWFIGKTSQKVKRHRDQLRAALAPQVEYRLKAMKENDSNWDRPNDFLQDILESGDIPAHVDVTDHCCDWMTQIIFAALHTTSENGTLSFYRLLDNPKVLEDLLEEQNQVLEDAGYDSSVGPEVFTREILNKFVKMDSVIRETSRLRNDYIGLPHKNISSKTITLSGGAMIRPGERAYVNAYSNHRDGTIQKVTDNLKSFEPYRFVNQDRNSTKIGEDFIFFGMGKHACPGRWFAIQEIKTIIAMMIRSYQLSALGPVTFPTDDYSRIPMGRFKIVPRK
B3: CYPDN30: cytochrome P450 homolog A0A1X2H4N2 from Syncephalastrum racemosum, codon-optimized (protein, listed as Syncephalastrum racemosum)
chain: MNALLQRQDKMRDFLNTREGVYGITAAVAVVLISAYSLRRTVYTSRRKDEIATVPYKLPLKGSTEEYRADPRAFVEKYAKMYGPVYRAYLFGEMMTIVSDSYVREIFLNDNFNFFQAVKDRFDMVKLCNCANDEGHGIADIVKRCLNPRLDMYTERVNEQLEEASKEILTEVDTKGSQELMHMYILVQHMVARASATVFVGPELAKNSELIDSFKNMVIQVGSQLRPNPWLEPFPRLNSLRMWYIGKTSPVVRKHRLQLRSAVKPSIDDRLARQKSQGNAFQRPDDLLQDIIERHPEAKTKSDIYDYVVDTLTALIFAALHTTSENSTVVLYRLLQHPELMEELVAEQDAVLLEHGLPKDSSARVMTRQMIKKFEKLDSVCRESFRLRNDYLGLPHTYEGKKDIVLSNGAIIKPGEKAIINLWGNHHSGNTPQSTSQDYFGFDPYRFVKQDKQATKISEDFLFFGLGKHACPGRFFAVQEAKVLISVLLRNYKLSPVDPPYFATDDTMKIPAGRIRIERR

Results on 3 molecules are retold here after patent US11781164B2, “Demethylation of reticuline and derivatives thereof with fungal cytochrome P450” (priority 2017, dated 2023).

The test system of the data set is thebaine. Kind of data set: Demethylation of thebaine by new cytochrome P450 fungal and plant homologs co-expressed with CPRs in S. cerevisiae. The settings on record: 0.5 mM thebaine, SC or DELFT media pH 7, 72 h, 30° C.; co-expressed with Cel_CPR_co, Tp_CPR_5866, Tp_CPR_DN10898 or POR1.
With B1, the Northebaine production result is reported as “+”.

With B2, the Northebaine production result is “+”.

In the case of B3, the Northebaine production entry is given as “+”.
